Test results from PMC11277218.

How the values were obtained:
[1] = biological target: HPV16 pseudovirions (HPV16-PsVs) (human papillomavirus type 16) (UniProt P03101)
[2] = biological target: HPV16 pseudovirions (HPV16-PsVs) (human papillomavirus type 16) (UniProt P03101); remark: listed apart in the source
[3] = biological target: HPV16 pseudovirions (HPV16-PsVs) (human papillomavirus type 16) (UniProt P03101); remark: listed apart in the source

UniProt P03101, sequence (P03101 whole entry, chain 1 of 2): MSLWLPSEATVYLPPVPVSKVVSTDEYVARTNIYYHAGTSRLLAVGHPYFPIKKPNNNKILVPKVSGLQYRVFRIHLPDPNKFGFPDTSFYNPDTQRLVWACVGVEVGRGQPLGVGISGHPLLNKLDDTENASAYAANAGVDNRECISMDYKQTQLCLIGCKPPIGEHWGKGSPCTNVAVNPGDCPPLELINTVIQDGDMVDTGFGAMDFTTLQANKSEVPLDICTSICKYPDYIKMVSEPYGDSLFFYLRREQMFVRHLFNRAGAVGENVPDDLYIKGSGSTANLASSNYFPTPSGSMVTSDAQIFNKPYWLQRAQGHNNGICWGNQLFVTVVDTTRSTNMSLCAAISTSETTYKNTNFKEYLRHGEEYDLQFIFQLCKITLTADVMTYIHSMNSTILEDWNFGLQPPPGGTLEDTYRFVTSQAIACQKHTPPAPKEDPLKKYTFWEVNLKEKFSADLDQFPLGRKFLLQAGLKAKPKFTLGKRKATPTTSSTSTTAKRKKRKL
UniProt P03101, sequence (P03107 whole entry, chain 2 of 2, further chain): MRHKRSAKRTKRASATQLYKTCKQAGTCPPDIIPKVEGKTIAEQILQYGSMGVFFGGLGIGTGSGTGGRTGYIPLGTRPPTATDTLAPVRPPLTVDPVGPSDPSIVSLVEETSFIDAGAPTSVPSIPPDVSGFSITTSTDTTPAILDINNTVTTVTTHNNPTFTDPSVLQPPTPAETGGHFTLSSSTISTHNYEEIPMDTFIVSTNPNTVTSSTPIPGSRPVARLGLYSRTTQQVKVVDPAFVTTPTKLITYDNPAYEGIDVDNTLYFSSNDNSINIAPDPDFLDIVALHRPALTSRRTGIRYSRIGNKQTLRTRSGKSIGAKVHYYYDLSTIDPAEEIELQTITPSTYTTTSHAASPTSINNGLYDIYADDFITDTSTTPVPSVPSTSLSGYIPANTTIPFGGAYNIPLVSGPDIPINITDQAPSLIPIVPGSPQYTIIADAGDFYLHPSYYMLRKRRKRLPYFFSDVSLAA

“native human surfactant protein A (SP-A) (from UniProt Q8IWL2 21-248) (natural protein)” gave an uptake of SP-A-preincubated AF488-PsVs into RAW264.7 macrophages, MFI by flow cytometry, fold of the BSA control [1] of 1.75 fold, an uptake of SP-A-preincubated AF488-PsVs into RAW264.7 macrophages, positive cells by flow cytometry, fold of the BSA control [1] of 2 fold and an uptake of SP-A-preincubated AF488-PsVs into THP-1-derived immature dendritic cells (DC0), positive cells by flow cytometry, fold of the BSA control [1] of 2 fold. For the same substance, the uptake of SP-A-preincubated AF488-PsVs into THP-1 monocytes, MFI by flow cytometry, fold of the BSA control [1] was 1.3 fold, the uptake of SP-A-preincubated AF488-PsVs into HaCaT keratinocytes, positive cells by flow cytometry, against the BSA control (fold decrease) [2] was 2 and the infection of HaCaT monocultures by SP-A-preincubated PsVs, Gaussia luciferase at 48 h, against the BSA control [3] was 40 % reduction.
